Data reported in patent US20170119913A1.

How the values were obtained:
[1] = molecular target: neurotensin receptor 1 (NTR1), human, prepared from CHO cells recombinantly expressing the human receptor (human) (UniProt P30989)
[2] = molecular target: NTR1 on HT29 or NTR1-expressing HEK293 cells (UniProt P30989); assay: cell-based or functional assay
[3] = molecular target: sst (non-selective), somatostatin receptor; assay: Cerep ExpresSProfile radioligand competition binding, reference compound (agonist radioligand)

Sequence of neurotensin receptor 1 (NTR1), human, prepared from CHO cells recombinantly expressing the human receptor (human) (P30989 whole entry): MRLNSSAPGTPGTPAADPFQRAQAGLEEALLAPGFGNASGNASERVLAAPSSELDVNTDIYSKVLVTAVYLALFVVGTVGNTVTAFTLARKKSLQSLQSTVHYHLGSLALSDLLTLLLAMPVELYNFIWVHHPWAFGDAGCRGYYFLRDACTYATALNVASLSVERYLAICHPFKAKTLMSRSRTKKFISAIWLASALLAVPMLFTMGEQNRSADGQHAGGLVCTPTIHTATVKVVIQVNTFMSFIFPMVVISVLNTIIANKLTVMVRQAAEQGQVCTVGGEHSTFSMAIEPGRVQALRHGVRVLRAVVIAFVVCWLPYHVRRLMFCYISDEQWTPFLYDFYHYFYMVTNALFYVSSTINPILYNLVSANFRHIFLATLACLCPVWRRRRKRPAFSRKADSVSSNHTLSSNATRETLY
Sequence of NTR1 on HT29 or NTR1-expressing HEK293 cells (P30989 whole entry): as above

Row | Substance | IC50 [1] | Agonistic Effect EC50 [nM], functional Ca2+ mobilisation assay [2] | Antagonistic Effect IC50 [nM], functional Ca2+ mobilisation assay [2] | further results
1 | 1206-Glutar-Ttds3-Asn-Ala-Val-Pro-Asn-Leu-Arg-Gly-Asp-Leu-Gln-Val-Leu-Ala-Gln-Lys-Val-Ala-Arg-Thr-GA (peptide) | 9.9 nM | > 50000 nM | 38 nM | 
2 | 1206-Glutar-Ttds-Lys(1206-Glutar-Ttds)-Ttds-Asn-Ala-Val-Pro-Asn-Leu-Arg-Gly-Asp-Leu-Gln-Val-Leu-Ala- (peptide) | 7.5 nM | > 50000 nM | 12 nM | 
3 | 1206-Glutar-Ttds-Lys(DOTA)-Ttds-GABA-Asn-Ala-Val-Pro-Asn-Leu-Arg-Gly-Asp-Leu-Gln-Val-Leu-Ala-Gln-Lys (peptide) | 10 nM | > 50000 nM | 18 nM | 
4 | alpha-dendrotoxin (from UniProt P00980 1-59) (peptide) |  |  |  | Ki (KV channel): 0.2 nM
5 | apamin (from UniProt P01500 28-45) (peptide) |  |  |  | Ki (SKCa channel): 0.0084 nM
6 | somatostatin-14 (from UniProt P61278 103-116) (peptide) |  |  |  | Ki [3]: 0.11 nM
